Test results published in patent publication US6143507A, “High throughput compatible assay for receptor-TRAF interactions” (Boehringer Ingelheim Pharmaceuticals, Inc., priority 1998, dated 2000).
Residues, ends and D or L forms follow the SMILES beside them.

Assays:
TRAF2(NC)-CA21 (human) = target: T1, TRAF2(NC)-CA21 (human); experiment: flashplate competition assay, inhibition of TRAF2(NC)-CA21 binding to biotin-CD40c
T1 sequence: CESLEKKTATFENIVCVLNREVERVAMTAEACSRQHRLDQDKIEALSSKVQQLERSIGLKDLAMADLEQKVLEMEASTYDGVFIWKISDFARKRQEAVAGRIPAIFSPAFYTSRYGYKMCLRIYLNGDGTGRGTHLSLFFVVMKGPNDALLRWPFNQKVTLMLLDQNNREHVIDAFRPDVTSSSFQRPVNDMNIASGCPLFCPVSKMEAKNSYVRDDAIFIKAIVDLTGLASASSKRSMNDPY

CD40c-TRAF2 interaction = target: T2, CD40c-TRAF2 interaction (Homo sapiens, UniProt Q12933); experiment: Flashplate assay of CD40c-TRAF2 interaction (biotin-CD40c, TRAF2(NC)-CA21, 125I-CA21 Fab); type: binding; details: 0.44 μg/ml biotin-CD40c; for IC50: 5 μg/ml TRAF2(NC)-CA21, peptide preincubated with TRAF2(NC)-CA21, read-out: IC50 for inhibition of CD40c-TRAF2 interaction
T2 construct: 1 and 2, respectively; made in house; host or cells: TRAF2(NC)-CA21: Spodoptera frugiperda Sf21 cells (baculovirus); CD40c: Escherichia coli BL21 (DE3)
T2 sequence (Q12933 with tags, fused parts or gaps): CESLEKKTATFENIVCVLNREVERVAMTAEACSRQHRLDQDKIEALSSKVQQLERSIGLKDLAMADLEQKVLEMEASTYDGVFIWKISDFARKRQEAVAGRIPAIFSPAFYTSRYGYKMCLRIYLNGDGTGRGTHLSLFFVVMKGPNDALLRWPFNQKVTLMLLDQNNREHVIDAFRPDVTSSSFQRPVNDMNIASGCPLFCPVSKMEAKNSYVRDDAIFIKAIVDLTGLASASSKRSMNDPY
Protocol: FIG. 2. Peptide antagonists of CD40c-TRAF2 interaction. Streptavidin flashplates were coated with 0.44 μg/ml biotin-CD40c. Stock solutions of peptides were prepared at 1 mg/ml in assay buffer and the pH verified. All peptides were assayed by preincubating with TRAF2(NC)-CA21 at a final peptide concentration of 0.5 mg/ml. Peptides were serially diluted 1.5-fold prior to addition of the TRAF2(NC)-CA21 (5 μg/ml final). Results are means of duplicate points except for the no inhibitor wells (none, closed circles) that are means i standard deviation of 11 replicates. A) Peptides AcPVQET-NH2 (closed squares), AcNTAAPVQET-NH2 (closed triangles), AcNTAAPVQETLH-NH2 (open triangles), CD30.B (AcDVMLSVEEEGKE-NH2, open circles); B) Peptides AcIQET-NH2 (closed squares), AcPIQET-NH2 (closed triangles), AcQEPQEINF-NH2 (open triangles), CD40c (open circles). The maximum signal in B) is less due to a difference in the decay of the ^125 I-Fab.
Significant signal was detectable as low as 0.054 μg/ml biotin-CD40c (FIG. 1). Standard conditions for the assay were selected to be 0.44 μg/ml CD40c and 5 μg/ml TRAF2(NC)-CA21. These conditions provided a signal/noise of eight to ten and a good dynamic range for the detection of inhibitors or enhancers. […] As noted by the manufacturer of the plates, low concentrations of detergents were strong inhibitors of the assay because they removed the streptavidin from the wells. […] The PVQET sequence in the CD40 cytoplasmic domain is essential for signaling through CD40 and is thought to be a core TRAF2 binding sequence. Devergne, O., et al (1996) Mol. Cell. Biol. 16, 7098-7108; Innui, W., et al (1990) Eur. J Immunol. 20, 1747-1753. Therefore several peptides around the PVQET sequence were tested for the ability to compete the CD40c-TRAF2 interaction (FIG. 2A). […] FIG. 2A.
Biotin-CD40c (0.5 μg/ml) was bound to streptavidin-coated 96-well scintillant-embedded plates (Flashplates, New England Nuclear, catalog #15112) overnight at 4° C. in D-PBS, 0.1 mM DTT, 0.01% BSA (100 μl/well). Plates were blocked for 2 hr at room temperature by the addition of Dulbecco's-PBS, 0.1 mM DTT, 1.0% BSA (100 μl/well). In a separate 96-well round bottom polypropylene plate peptide inhibitors were diluted in 40 mM HEPES, pH 7.5, 0.1 M NaCl, 1.0 mM MgCl2, 0.1 mM DTT, 0.01% BSA, and TRAF2(NC)-CA21 was added at a final concentration of 5 μg/ml. Plates were preincubated for 30 min at room temperature. After washing the biotin-CD40c-coated flashplate three times with D-PBS, 0.1 mM DTT, inhibitor-TRAF2(NC)-CA21 mixtures were transferred from the preincubation plate to the washed plate (100 μl/well). Alternatively, after washing the biotin-CD40c-coated flashplates, inhibitors were added directly without TRAF preincubation in a final volume of 50 μl 40 mM HEPES, pH 7.5, 0.1 M NaCl, 1.0 mM MgCl2, 0.1 mM DTT, 0.01% BSA, and 50 μl/well TRAF2(NC)-CA21 (10 μg/ml stock to make a final concentration of 5 μg/ml) was added. Flashplates were incubated for 1 hr at room temperature, washed three times with 40 MM HEPES, pH 7.5, 0.1 M NaCl, 1.0 mM MgCl2, 0.1 mM DTT, and 100 μl/well of [^125 I]CA21 Fab fragment at an adjusted specific activity of 0.08 μCi/well added in […] HEPES, pH […] 7.5, 0.1 M NaCl, 1.0 mM MgCl2, 0.1 mM DTT, 0.1% BSA. After a 1 hr incubation at room temperature plates were sealed and counted in a TopCount scintillation counter (Packard; one minute/well, 2 minute plate delay).

[1] = tested on: GST-CD40-TRAF interaction; details: cited from earlier work

| Molecule | IC50 (TRAF2(NC)-CA21 (human)) | IC50 (CD40c-TRAF2 interaction) | further results |
| --- | --- | --- | --- |
| CD40c (nonbiotinylated CD40c polypeptide) (from UniProt P25942) (receptor) | 50 µM | – | – |
| Ac-PIQET-NH2 [PIQET, AcPIQET-NH2] | – | ~70 µM | – |
| Ac-PVQET-NH2 [PVQET, AcPVQET-NH2] | – | ~90 µM | ability to inhibit (compete) CD40c-TRAF2 interaction, in words (CD40c-TRAF2 interaction; 5 μg/ml TRAF2(NC)-CA21, peptides up to 0.5 mg/ml): most potent |
| CC[C@H](C)[C@H](NC(C)=O)C(=O)N[C@@H](CCC(N)=O)C(=O)N[C@@H](CCC(=O)O)C(=O)N[C@H](C(N)=O)[C@@H](C)O [IQET, AcIQET-NH2] (Ac-IQET-NH2) | – | ~140 µM | – |
| CD40c: 62 amino acid human CD40 cytoplasmic domain (amino acids 216-277) expressed in E. coli (protein, also: biotinylated via D-biotinoyl-aminocaproic acid NHS ester, one or two biotin per molecule, sites not given here, 62 amino acid human CD40 cytoplasmic domain (amino acids 216-277) expressed in E. coli) KKVAKKPTNKAPHPKQEPQEINFPDDLPGSNTAAPVQETLHGCQPVTQEDGKESRISVQERQ | – | ~50 µM | ability to compete for GST-CD40-TRAF interaction [1]: weak ability to compete |
| Ac-IQET-NH2 [AcIQET-NH2] | 140 µM | – | fold decrease of inhibitory activity against PIQET (TRAF2(NC)-CA21 (human)): 2 fold |
| Ac-PIQET-NH2 [AcPIQET-NH2] | 70 µM | – | – |
| Ac-PVQET-NH2 [AcPVQET-NH2] | 90 µM | – | – |
